Results on one molecule are retold here after PMC3307221 (Analytical Chemistry, 2012).

The target of the assay is protective antigen of anthrax (Bacillus anthracis, strain , UniProt P13423). In words: SPR. (In SPR one partner is held on a chip, and binding of the other changes the refractive index at the surface.)
Chain of protective antigen of anthrax (P13423 whole entry, looked up): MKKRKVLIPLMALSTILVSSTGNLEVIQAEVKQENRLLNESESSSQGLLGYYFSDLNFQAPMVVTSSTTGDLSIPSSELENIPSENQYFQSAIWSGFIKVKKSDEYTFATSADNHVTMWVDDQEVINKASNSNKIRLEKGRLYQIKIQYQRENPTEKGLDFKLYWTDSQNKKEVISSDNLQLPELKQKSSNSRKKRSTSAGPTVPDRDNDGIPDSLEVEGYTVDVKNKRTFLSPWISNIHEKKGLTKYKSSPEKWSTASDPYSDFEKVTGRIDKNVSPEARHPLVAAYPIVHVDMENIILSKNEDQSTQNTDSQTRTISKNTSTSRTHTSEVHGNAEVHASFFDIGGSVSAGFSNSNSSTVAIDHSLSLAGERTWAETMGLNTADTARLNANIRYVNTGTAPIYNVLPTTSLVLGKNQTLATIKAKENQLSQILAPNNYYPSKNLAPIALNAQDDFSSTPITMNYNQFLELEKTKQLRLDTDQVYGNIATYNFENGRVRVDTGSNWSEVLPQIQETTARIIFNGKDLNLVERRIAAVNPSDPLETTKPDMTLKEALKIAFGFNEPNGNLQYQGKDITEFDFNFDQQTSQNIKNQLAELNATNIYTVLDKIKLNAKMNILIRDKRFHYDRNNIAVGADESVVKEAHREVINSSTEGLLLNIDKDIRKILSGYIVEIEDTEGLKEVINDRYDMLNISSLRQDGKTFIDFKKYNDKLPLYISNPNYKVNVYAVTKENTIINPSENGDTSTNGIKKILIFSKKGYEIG

B1: M18 scFv (scFv, V domains shown)
VH: EVQLQQSGPELVKPGASVKISCKDSGYAFNSSWMNWVKQRPGQGLEWIGRIYPGDGDSNYNGKFEGKAILTADKSSSTAYMQLSSLTSVDSAVYFCARSGLLRYAMDYWGQGTSVTVSS
VL: DIQMTQTTSSLSASLGDRVTVSCRASQDIRNYLNWYQQKPDGTVKFLIYYTSRLQPGVPSRFSGSGSGTDYSLTINNLEQEDIGTYFCQQGNTPPWTFGGGTKLEIK
As for B1, the off-rate constant (koff) – broadly, the first-order rate constant of dissociation – is 0.00011 s⁻¹ and the kon (usually the rate constant with which the complex forms) was 597000 M⁻¹ s⁻¹.
